Non-standard residues stand in square brackets, D forms with d. No end group written: not given here.
Molecular target: Glucagon-like peptide-1 receptor (GLP1R)
Experiment: cell-based or functional assay

B1: HS-20003 (peptide)
peptide: H[dA]EGTFTSDVSSYLEEEAAKEFIAWLVRGGPSSGAPPPSK
modifications: not fully specified (residue 40); also: palmitoyl on alpha-amino of C-terminal Lys, chain built on its epsilon amino
B1 showed an EC50 (nM), cAMP-response-element luciferase reporter in HEK293 cells with GLP1R of 0.000719 nM and a Maximum reaction rate (%) of 87.9%.

Reference: patent US20120129768A1
